The target in assay [1] is T1, glutathione S-transferase (UniProt P08515 1-218 = GST).
T1 construct: Expressed in E. coli, purified on GSH resin; also called GST
Kind of assay: indirect ELISA, GST coated.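 Note: nanobody dilution series starting at 10 µM binding plate-bound antigen, HRP anti-His or anti-T7 tag detection, TMB absorbance at 450 nm, logIC50 from four-parameter logistic fit.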
Protocol: (§1) Indirect ELISA was carried out to evaluate the camelid immune response of an antigen and to quantify the relative affinities of antigen-specific Nbs. An antigen was coated onto a 96-well ELISA plate (R&D system) at an amount of approximately 1-10 ng per well in a coating buffer (15 mM sodium carbonate, 35 mM sodium bicarbonate, pH 9.6) overnight at 4° C. The well surface was then blocked with a blocking buffer (DPBS, 0.05% Tween 20, 5% milk) at room temperature for 2 hours. To test an immune response, the immunized serum was serially 5-fold diluted in the blocking buffer. The diluted sera were incubated with the antigen coated wells at room temperature for 2 hours. HRP-conjugated secondary antibodies against llama Fc (Bethyl) were diluted 1:10,000 in the blocking buffer and incubated with each well for 1 hour at room temperature. […] Nbs of both specific binders for test and scramble negative controls were serially 10-fold diluted from 10 μM to 1 μM in the blocking buffer. HRP-conjugated secondary antibodies against His-tag (Genscript) or T7-tag (Thermo) were diluted 1:5,000 or 1:10,000 in the blocking buffer and incubated for 1 hour at room temperature. Three washes with 1x PBST (DPBS, 0.05% Tween 20) were carried out to remove nonspecific absorbance between incubations. After the final wash, the samples were further incubated under dark with freshly prepared w3,3′,5,5′-Tetramethylbenzidine (TMB) substrate for 10 mins at room temperature to develop the signals. After the STOP solution (R&D system), the plates were read at multiple wavelengths (450 nm and 550 nm) on a plate reader (Multiskan GO, Thermo Fisher). A false positive Nb binder was defined if any of the following two criteria was met: i) the ELISA signal can only be detected at a concentration of 10 μM and was under detected at 1 μM concentration. ii) At 1 μM concentration, a pronounced signal decrease (by more than 10-fold) was detected compared to the signal at 10 μM, while there were no signals can be detected at lower concentrations. The raw data was processed by Prism 7 (GraphPad) to fit into a 4PL curve and to calculate logIC50.

For assay [2], the target named is T1, glutathione S-transferase. Kind of assay: SPR, GST immobilised.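 Note: nanobody analytes injected as dilution series over three orders of magnitude across antigen on a CM5 chip, kinetics fitted by 1:1 Langmuir model, optionally with mass transfer, duplicate runs.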
Protocol: (§2) Nb affinity measurement by SPR. Surface plasmon resonance (SPR, Biacore 3000 system, GE Healthcare) was used to measure Nb affinities. Antigen proteins immobilized on the activated CM5 sensor-chip by the following steps. Protein analytes were diluted to 10-30 μg/ml in 10 mM sodium acetate, pH 4.5, and were injected into the SPR system at 5 μl/min for 420 s. The surface of the sensor was then blocked by 1 M ethanolamine-HCl (pH 8.5). For each Nb analyte, a series of dilution (spanning three orders of magnitude) was injected in HBS-EP+ running buffer (GE-Healthcare) containing 2 mM DTT, at a flow rate of 20-30 μl/min for 120-180 s, followed by a dissociation time of 5-20 mins based on dissociation rate. Between each injection, the sensor chip surface was regenerated with the low pH buffer containing 10 mM glycine-HCl (pH 1.5-2.5), or high pH buffer of 20-40 mM NaOH (pH 12-13). The regeneration was performed with a flow rate of 40-50 μl/min for 30 s. The measurements were duplicated and only highly reproducible data was used for analysis. Binding sensorgrams for each Nb were processed and analyzed using BIAevaluation by fitting with 1:1 Langmuir model or 1:1 Langmuir model with mass transfer.
Assay [3] concerns the target T2, human serum albumin (human, UniProt P02768 25-609).
T2 construct: In the mutant screen wild type HSA came from medium of transfected HeLa cells; also called HSA; wild type HSA
The assay is described as follows: SPR, HSA immobilised.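 Note: nanobody analytes injected as dilution series across three log units over CM5 chip with amine-coupled antigen, kinetics fitted by 1:1 Langmuir model, optionally with mass transfer.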
Protocol: as §2

Assay [4] deals with T2, human serum albumin. Kind of assay: indirect ELISA, HSA coated.
Protocol: as §1
For assay [5], the target named is T3, MBP-PDZ fusion protein (mammalian (so in the source), UniProt P57105 6-100, limits assumed).
T3 construct: domain: PDZ domain; also called MBP fusion PDZ
T3 sequence (looked up): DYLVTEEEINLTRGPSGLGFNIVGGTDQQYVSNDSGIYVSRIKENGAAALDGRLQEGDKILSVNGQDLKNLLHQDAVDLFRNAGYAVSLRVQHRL
The assay is described as follows: beads-binding assay, MBP-PDZ-coupled resin.
Protocol: After Nb induction and cell lysis, the cell lysates were run on SDS-PAGE to estimate Nb expression levels. Recombinant Nbs in the cell lysis were diluted in 1x DPBS (pH 7.4) to a final concentration of ˜5 μM (for GST Nbs) and ˜50 nM (for PDZ Nbs). To test the specific interactions of Nbs with antigens, different antigens were coupled to the CNBr resin. Inactivated or MBP-conjugated CNBr resin was used for control. Antigen coupled resins or control resins were incubated with Nb lysates at 4° C. for 30 mins. The resins were then washed three times with a washing buffer (1x DPBS with 150 mM NaCl and 0.05% Tween 20) to remove nonspecific bindings. Specific antigen bound Nbs were then eluted from the resins by the hot LDS buffer containing 20 mM DTT and ran on SDS-PAGE. The intensities of Nbs on the gel were compared between antigen specific signals and control signals to derive the false positive binding.

Substitutions are numbered along the chain they refer to.

T2 sequence (P02768 25-609 limits assumed): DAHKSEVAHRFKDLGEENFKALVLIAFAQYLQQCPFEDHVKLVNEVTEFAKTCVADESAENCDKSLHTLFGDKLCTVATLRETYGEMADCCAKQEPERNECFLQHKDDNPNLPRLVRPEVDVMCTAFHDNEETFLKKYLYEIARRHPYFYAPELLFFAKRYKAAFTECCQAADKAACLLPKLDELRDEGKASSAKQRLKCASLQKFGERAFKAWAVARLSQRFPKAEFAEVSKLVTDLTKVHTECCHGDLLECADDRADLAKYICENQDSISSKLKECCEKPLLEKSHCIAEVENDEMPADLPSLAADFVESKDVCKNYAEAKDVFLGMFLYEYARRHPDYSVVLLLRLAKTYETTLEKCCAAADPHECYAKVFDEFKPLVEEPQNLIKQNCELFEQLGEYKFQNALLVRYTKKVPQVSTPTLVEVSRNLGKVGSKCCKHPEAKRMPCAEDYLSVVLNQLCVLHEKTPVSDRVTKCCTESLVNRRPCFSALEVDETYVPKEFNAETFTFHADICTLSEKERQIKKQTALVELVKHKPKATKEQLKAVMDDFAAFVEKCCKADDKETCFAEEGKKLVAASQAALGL
T1 sequence (P08515 whole entry): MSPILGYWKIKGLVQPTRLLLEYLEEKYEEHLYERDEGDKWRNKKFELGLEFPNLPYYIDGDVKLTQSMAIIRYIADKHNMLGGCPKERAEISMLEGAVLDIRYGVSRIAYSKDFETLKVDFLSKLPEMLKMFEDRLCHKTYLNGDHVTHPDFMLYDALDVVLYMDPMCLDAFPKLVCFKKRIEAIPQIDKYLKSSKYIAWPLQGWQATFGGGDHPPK

B1: G17 (VHH)
VHH: EVQLVESGGGLVQAGGSLRLSCAASGVTISYWVMGWFRQAPGKEREFVARISWGGERTYYADSVKGRFAISRDNAKNTVYLQMNSLNAEDTAVYYCAADRTGWGHSNSRSEYDYWGQGTQVTVSS
Consider B1, for which, in assay [1], the “ELISA affinity (LogIC50 (oD450nm))” value stood at 9.81. In assay [2], this molecule gave a Kd of 0.0217 nM, a koff of 2.92e-05 s⁻¹ and a kon of 1.34e+06 M⁻¹ s⁻¹.

B2: G22 (VHH)
VHH: QVQLVESGGGSVQAGGSLRLSCAASGRTFSSYSMAWFRQAPGKEREFVAVMNCRYGDTDYPDSVKGRFTMSRDNAKNTLYLQMNSLKPEDTAVYYCAAKLIAYCGSGYYYRRNDYGYWGQGTQVTVSS
Turning to B2, the “ELISA affinity (LogIC50 (oD450nm))” value in assay [1] stood at 2.07. Further, in assay [2], the affinity, expressed as Kd, was 40.5 nM; the dissociation rate constant (koff) was determined as 0.00125 s⁻¹; the kon was 30900 M⁻¹ s⁻¹.

B3: H21 (VHH)
VHH: QVQLVESGGGLVQAGGSLRLSCAASGYTSGNDAMGWFRQAPGKEREFVGAIRWSGVSTYYADSVKGRFTISRDGAKNTLYLQMNSLKPEDTAVYYCAAKFTGSAWYGVQKLESTYWDYWGQGTQVTVSS
On to B3, for which, in assay [3], binding was characterised by a dissociation constant (Kd) of 0.266 nM, the off-rate (koff) was 0.000182 s⁻¹ and the kon was 683000 M⁻¹ s⁻¹. Moreover, in assay [4], the “ELISA affinity (LogIC50 (oD450nm))” value was 5.63.

B4: H15 (VHH)
VHH: QVQLVESGGGLVQAGDSLRLSCAASERTSNYAMGWFRQAPGKEREFVADINHTGGRRKYGDSVKGRFTISRDNAENMVYLQMNNLQVEDTAVYYCATGLRYDVSGYAPDYRYWGRGTQVTVSS
Regarding B4, in assay [4], the binding result is reported as “no binding (tested: Nb titrated from 10 µM)”.

B5: H30 (VHH)
VHH: HVQLVESGGGLAQAGGSLRLSCAASGGTFSNSCMGWFRQAPGMEREFVAIIRSTGHTTYADSVEGRFTVSRDIAKNTVYLEMNSLKPEDTAVYSCVAGVSDYGCYRTSGIKYWGQGTQVTVSS
In assay [3], B5 gave an equilibrium dissociation constant (Kd) of 0.164 nM, a koff of 0.000168 s⁻¹ and a kon of 1.03e+06 M⁻¹ s⁻¹. Besides, the “ELISA affinity (LogIC50 (oD450nm))” value in assay [4] is 5.89.

B6: H4 (VHH)
VHH: HVQLVESGGGLVQTGGSLRLACAASGRAFSTYAMGWFRQAPGKEREFVASINRSGSSTYYADSVKGRFTISRDNGKDTVYLQMNRLIPEDTAVYYCAADSEGVGFRNMLEYDYWGQGTQVTVSS
On to B6, for which, in assay [3], the Kd was found to be 0.266 nM, the off-rate constant (koff) came to 0.000264 s⁻¹ and the kon turned out to be 992000 M⁻¹ s⁻¹. For the same molecule, the “ELISA affinity (LogIC50 (oD450nm))” value in assay [4] turned out to be 5.4.

B7: G34 (VHH)
VHH: QVQLVESGGGLVQAGDSLRLSCAASGRTFSRYAMAWFRQAPGKEREFVAGISWTGRFTYYADSVKGRFTISRDDAKNTVYLQMNNLKPEDTGLYFCKVGDPYGVGLREYEWWGPGTQVTVSS
For the molecule B7, in assay [1], the “ELISA affinity (LogIC50 (oD450nm))” value was 5.32. In assay [2], the Kd amounted to 17.6 nM, the off-rate constant (koff) came to 0.000462 s⁻¹ and the kon is 26300 M⁻¹ s⁻¹.

B8: G48 (VHH)
VHH: QVQLVESGGGLVQAGGSLRLSCAASGRTFSTLSMGWFRQAPGQGREFVGGINYDGSSVEYADSVKGRFTISRDNAKNMMYLQMNSLKPEDTAAYYCASSRGYNTGTNPLGYDVWGQGTQVTVSS
Consider B8, for which the “ELISA affinity (LogIC50 (oD450nm))” value in assay [1] was determined as 1.6. Further, in assay [2], binding was put at a Kd of 126 nM, the koff was 0.000753 s⁻¹ and the kon turned out to be 5930 M⁻¹ s⁻¹.

B9: G13 (VHH)
VHH: DVQLVESGGGVVQAGGSLRLSCAASGRTFSDYAMGWFRQAPGKEREFVAGVSWSGVDTYYADSVKGRFTISRDNAKNTLYVQMNSLKPEDTAVYYCAAQRYYHGHAKNMRYDYWGQGTQVTVSS
notes: also called G13(C3)
As for B9, the “ELISA affinity (LogIC50 (oD450nm))” value in assay [1] came to 6.74. Also, in assay [2], the Kd came out at 0.36 nM, the koff came out at 0.00017 s⁻¹ and the kon was 474000 M⁻¹ s⁻¹.

B10: G47 (VHH)
VHH: QVQLVESGGGLVQAGGSLRLSCAASERIFSNYAMGWFRQAPGKEREFVASIRGSGSQTSYADSVKGRFTISRDGAKDTVDLQMNSLKPEDTAVYYCSAKKYCGSTYNRAEGYDYWGQGTQVTVSS
Consider B10, for which the “ELISA affinity (LogIC50 (oD450nm))” value in assay [1] was 3.86. In assay [2], this molecule showed a Kd of 32.4 nM, a koff of 0.0127 s⁻¹ and a kon of 391000 M⁻¹ s⁻¹.

B11: H1 (VHH)
VHH: QVQLVESGGGLVQPGGSLRLSCVASGIMFDIYTMRWYRQAPGKQRELVAAITGAGRANYNDDSVKGRFTISRDNAKNTVYLQMNRMKPEDTALYECNTEILGGGPNYWGRGTQVTVSE
Regarding B11, the “ELISA affinity (LogIC50 (oD450nm))” value in assay [4] stood at 4.92.

B12: H11 (VHH)
VHH: QVQLVESGGGLVQVGGSLRLSCAASGRTFSNYVMGWFRQAPGKEREFVAYIHWSGSSTSYADSVKGRFTISRDNTKNTMYLQMNSLKPEDTAVYYCTADQYASTLLRAAGEYWGQGTQVTVSS
With B12, in assay [3], binding was put at a Kd of 0.061 nM, the koff is 1.55e-05 s⁻¹ and the kon was determined as 255000 M⁻¹ s⁻¹. Moreover, the “ELISA affinity (LogIC50 (oD450nm))” value in assay [4] came to 6.27.

B13: H16 (VHH)
VHH: QVQLVESGGGLVQTGGSLTLSCAASGRTFSTKSMGWFRQAPGKEREFVADINWNGGITHYADSVEGRFTISRDNANDMVYLQMNSLKPEDTAVYYCAGGRYSTLFSKSEADYDYWGQGTQVTVSS
For the molecule B13, in assay [3], the Kd came to 0.0862 nM, the koff was 0.000116 s⁻¹ and the kon was found to be 1.34e+06 M⁻¹ s⁻¹. Further, in assay [4], the “ELISA affinity (LogIC50 (oD450nm))” value amounted to 5.99.

B14: H7 (VHH)
VHH: DVQLVESGGGSVQAGGSLRLSCAASGGTFSSYAMGWYRQAPGKEREFVSGISWSGSSIDYVDSVKGRFTISRDNAKNTVYLQMNSLKPEDTAVYYCGAADPMGLGYGLGPRPVDRLLSAECDYWGQGTQVTVSS
In assay [3], B14 had a Kd of 1.09 nM, a koff of 9.79e-05 s⁻¹ and a kon of 93500 M⁻¹ s⁻¹. For the same molecule, in assay [4], the “ELISA affinity (LogIC50 (oD450nm))” value turned out to be 5.62.

B15: H35 (VHH)
VHH: EVQLVESGGGLVQAGGSLRVSCAVSGISIYHSGWYRQAPGKERELVAGISRGGSTNYADSVKGRFTISRDSGENTVYLQMNSLKPEDTAVYYCKIDWDYRGVSQTAWGQGTQVTVSS
With B15, the binding result in assay [4] is given as “no binding (tested: Nb titrated from 10 µM)”.

B16: H18 (VHH)
VHH: EVQLVESGGGLVQAGGSLRLSCTASGPKDTPYTMGWFRQVPGKEREFVASVLWSGINTDYADSVKGRFAISRNNAKNTMYLQMNSLKPEDTAVYYCAAGYGLGFYRSISQYDYWGHGTQVTVSS
In assay [3], B16 yielded a Kd of 0.502 nM, a koff of 8.71e-05 s⁻¹ and a kon of 171000 M⁻¹ s⁻¹. Moreover, the “ELISA affinity (LogIC50 (oD450nm))” value in assay [4] worked out at 5.65.

B17: H20 (VHH)
VHH: B16 VHH with S107T, I108V
In assay [3], B17 showed a Kd of 0.247 nM, a koff of 3.8e-05 s⁻¹ and a kon of 154000 M⁻¹ s⁻¹. For the same molecule, the “ELISA affinity (LogIC50 (oD450nm))” value in assay [4] was 5.76.

B18: H3 (VHH)
VHH: QVQLVESGGGLVQAGGSLRLSCVASGRTFEPFVMGWFRQAPGKEREFVATISWSGGSLSYADSVKGRFTVSRDNAKNTVYLQMNSLKPEDTAVYYCAAAPGVGNYRYTFQYDYWGQGTQVTVSE
As for B18, in assay [3], the Kd came to 0.454 nM, the koff was 0.000504 s⁻¹ and the kon turned out to be 1.11e+06 M⁻¹ s⁻¹. The “ELISA affinity (LogIC50 (oD450nm))” value in assay [4] is 7.

B19: H2 (VHH)
VHH: QVQLVESGGGLVQAGGSLRLSCTASGRTFTPYTIGWFRQAPGKEREFVASILWSGINTDYADSVKGRFAISRDNAKNAAYLQMSNLKPEDTAVYYCATGGGLGYYRSVSQYDYWGQGTQVTVSE
In assay [3], B19 returned a Kd of 0.17 nM, a koff of 3.99e-05 s⁻¹ and a kon of 234000 M⁻¹ s⁻¹. Besides, the “ELISA affinity (LogIC50 (oD450nm))” value in assay [4] was determined as 5.88.

B20: H25 (VHH)
VHH: DVQLVESGGGLVQAGGSLRLSCAASGRTISDYGMAWFRQAPGKEREFVGVITSNSVTTYYADSVKGRFTISRDNTKNTVYLQMISLKPEDTAIYYCAARIPVGFYYNARNYDFWGQGTQVTVSS
As for B20, in assay [3], the Kd worked out at 0.858 nM, the koff was determined as 0.000802 s⁻¹ and the kon was 936000 M⁻¹ s⁻¹. Also, in assay [4], the “ELISA affinity (LogIC50 (oD450nm))” value was 5.34.

B21: P1 (VHH)
VHH: DVQLVESGGGLVQPGGSLRLSCAASGFTLDDYAIGWFRQAPGKEREGVSCISSHGSTYYADSVKGRFTISRDNVKNTLYLQMNSLKPEDTALYYCAASYYSDYEVAVCRSDALDAWGQGTQVTVSE
With B21, the binding result in assay [5] is on record as “binds”.

B22: H24 (VHH)
VHH: QVQLVESGGGLVQAGGSLRLSCVSSGRTYRWNAMGWFRQAPGKEREFVAAIDWDGRNTDYADSVKGRFTISRDNAKNTVYLQMNSLKVEDTAIYYCAAREWGSGGYSSIASYAYWGQGTQVTVSS
Take B22: the binding result in assay [4] was “no binding (tested: Nb titrated from 10 µM)”.

B23: H28 (VHH)
VHH: DVQLVESGGGLAQAGGSLRLSCAASGRTFSNECMGWFRQAPGKEREFVATIRSTGHISYATSVQGRFTVSRDIAKNTVYLEMNNLKPEDTAVYSCGAGVSDYGCYRTSGYNYWGQGTQVTVSS
notes: also called N28
In assay [3], B23 showed a Kd of 1.66 nM, a koff of 0.00868 s⁻¹ and an on-rate constant (kon) of 5.24e+06 M⁻¹ s⁻¹. The “ELISA affinity (LogIC50 (oD450nm))” value in assay [4] was determined as 5.12.
